B1: [PIN+] prion protein RNQ1 (Saccharomyces cerevisiae), P25367 (parent)
chain: MDTDKLISEAESHFSQGNHAEAVAKLTSAAQSNPNDEQMSTIESLIQKIAGYVMDNRSGGSDASQDRAAGGGSSFMNTLMADSKGSSQTQLGKLALLATVMTHSSNKGSSNRGFDVGTVMSMLSGSGGGSQSMGASGLAALASQFFKSGNNSQGQGQGQGQGQGQGQGQGQGSFTALASLASSFMNSNNNNQQGQNQSSGGSSFGALASMASSFMHSNNNQNSNNSQQGYNQSYQNGNQNSQGYNNQQYQGGNGGYQQQQGQSGGAFSSLASMAQSYLGGGQTQSNQQQYNQQGQNNQQQYQQQGQNYQHQQQGQQQQQGHSSSFSALASMASSYLGNNSNSNSSYGGQQQANEYGRPQQNGQQQSNEYGRPQYGGNQNSNGQHESFNFSGNFSQQNNNGNQNRY

Variants of: B1
Conditions: with mas5_yeast YDJ1, P25491
mas5_yeast YDJ1, P25491, sequence (P25491 whole entry): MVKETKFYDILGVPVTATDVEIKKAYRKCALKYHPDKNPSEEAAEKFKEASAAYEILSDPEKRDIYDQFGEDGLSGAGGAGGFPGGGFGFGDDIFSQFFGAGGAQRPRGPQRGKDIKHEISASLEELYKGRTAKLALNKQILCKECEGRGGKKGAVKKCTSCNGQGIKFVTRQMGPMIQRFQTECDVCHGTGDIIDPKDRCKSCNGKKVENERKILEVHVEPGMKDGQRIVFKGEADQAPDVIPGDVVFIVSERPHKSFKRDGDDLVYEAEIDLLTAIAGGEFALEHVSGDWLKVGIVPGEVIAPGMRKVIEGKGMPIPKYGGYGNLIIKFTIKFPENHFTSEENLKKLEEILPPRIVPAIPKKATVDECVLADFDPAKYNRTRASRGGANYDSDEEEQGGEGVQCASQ

| Variant | effect of a mutation on the interaction |
| --- | --- |
| Q257Y | disrupting interaction |
| N253Y | disrupting interaction |
